From patent US20250313644A1 (FUTUREGEN BIOPHARMACEUTICAL BEIJING, published 2025)

Molecular target: T1, human TL1A (HuTL1A) (human, UniProt O95150 57-251, limits assumed, biotin-labelled in some assays (site not stated))
T1 construct: Expressed in EXPI-293 cells and purified by Ni-NTA (His-tag); Described as a trimeric antigen; also called TL1A antigen; WT
T1 sequence: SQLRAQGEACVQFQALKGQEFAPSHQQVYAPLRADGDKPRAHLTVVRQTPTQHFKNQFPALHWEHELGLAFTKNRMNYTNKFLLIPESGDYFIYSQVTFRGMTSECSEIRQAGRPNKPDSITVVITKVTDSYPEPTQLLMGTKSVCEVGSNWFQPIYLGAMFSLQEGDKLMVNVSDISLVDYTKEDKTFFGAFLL
Experiment: ELISA: biotin-HuTL1A on streptavidin plate, antibody diluted at pH 5.8, HRP-anti-human Fc, OD450
Method: Corresponding antibodies were added to specific wells, and the antibodies were diluted with sodium dihydrogen phosphate-citrate buffer at pH 7.4, pH 6.0, pH 5.8, or pH 5.6. Binding assay was carried out at room temperature for 30 minutes. After the incubation, the excess antibodies were removed and the wells were washed by PBST. HRP-anti-Human Fc (Sino Biological) was then added into each well and incubated for 30 minutes to detect the bound antibody. The substrate TMB was finally added to develop color for 5-10 minutes. The color development reaction was terminated with 1M sulfuric acid. OD450 nm was recorded on a microplate reader, and the data were processed and fitted by 4 parameter logistic regression.

B1: M701-4007 (antibody, human IgG1, kappa, L234A L235A, V domains shown)
VH: ELQLQESGPGLVKPSETLSLTCAVSGVSFSDYHWAWIRQPPGKGLEWIGDINHRGHTNYNPSLKSRVTVSIDTSKNQFSLKLSSVTAADTAVYFCARDFPNFIFDFWGQGTLVTVSS
VL: DIQLTQSPGTLSLSPGERATLSCRASQSVSTYLAWYQQKPGQAPRLLIYGASKRATGIPDRFSGSGSGTDFTLTISRLEPEDFAVYYCQQYGDSPLTFGQGTKVEIKR
notes: Fc-engineered IgG1
EC50 (read off the curve): ~0.7 nM
